# Test results reported in patent US20180320179A1, “LANOSTEROL 14-ALPHA DEMETHYLASE (CYP51) NUCLEIC ACID MOLECULES THAT CONTROL PATHOGENS” (Dow AgroSciences LLC, priority 2017, published 2018).
# B1: MgCyp51-T6: dsRNA tile of Zymoseptoria tritici Cyp51, 280 bp, location 881-1160 (nucleic acid, listed as Zymoseptoria tritici)
# chain: ATGCCATTCCCGACAAGGAGATTGCTCATATGATGATTGCGCTGCTCATGGCCGGCCAGCACTCTTCATCTGCGACCGAGTCCTGGATCACTCTCCGCCTCGCATCCCGCCCCGACATCCAAGACGAACTCCTCCAAGAACAAAAGGATATGCTCGGTGTGAACGCCGACGGCAGTATCAAGGAGCTCACATACGCCAACCTCTCGAAACTCACCCTCCTCAATCAAGTCGTCAAAGAAACCCTTCGTATTCACGCTCCAATCCACTCCATTCTGCGCAA
# B2: MgCyp51-T8: dsRNA tile of Zymoseptoria tritici Cyp51, 242 bp, location 1151-1392 (nucleic acid, listed as Zymoseptoria tritici)
# chain: TTCTGCGCAAGGTCAAGTCTCCCATGCCCATCGAAGGTACGGCATACGTCATTCCAACCACCCACACTCTTCTGGCCGCTCCGGGCACAACGAGCCGCATGGACGAGCACTTTCCCGACTGCCTCCATTGGGAGCCGCATCGATGGGACGAGAGCCCGTCCGAGAAATACAAGCACCTGTCCCCGACGACTGCCCTAGGAAGCATCGCCGAGGAGAAAGAAGACTATGGCTACGGCCTGGTA
# B3: MgCyp51-T5: dsRNA tile of Zymoseptoria tritici Cyp51, 133 bp, location 1316-1448 (nucleic acid, listed as Zymoseptoria tritici)
# chain: AATACAAGCACCTGTCCCCGACGACTGCCCTAGGAAGCATCGCCGAGGAGAAAGAAGACTATGGCTACGGCCTGGTAAGCAAGGGCGCGGCGTCGCCATACTTACCCTTTGGTGCGGGACGACACAGATGTAT
# B4: YFP: non-target dsRNA control (YFP, yellow fluorescent protein coding region) (nucleic acid)
# chain: TGTAGAAATCCTTCAGCTCGGGGCCGTACTTGGCGAAGCACTGGGCGCCGTAGGTCAGGGTGGTCACCAGGGTGCTCCAGGGCACGGGCACATCGCCGGTGGTGCAGATGAACTGGGCATCCACCTTGCCCACGCTGGCATCGCCGTAGCCCTTGCCGCGGATGCTGAAGGTGTGGCCATCCACATTGCCCTCCATCTCCACCACGTAGGGGATCTTGCCGTGGAACAGCAGGGCGCCGCTGGAGCCCAT
# modifications: double-stranded RNA; synthesized partial coding region
# System: Zymoseptoria tritici (SEPTTR-184)
# Assay: Cyp51 dsRNA tile (fragment) foliar application bioassay (Example 6)
# Format: in vivo
# Settings: 1 day protectant; calculated from disease control
# Protocol: The 200 ppm concentration for each treatment was prepared by adding the calculated volume of the corresponding dsRNA solution in TE buffer. […] A non-target dsRNA control (YFP), a TE/phosphate buffer control, disease pressure control, and clean plant control were included.
# (§1) These plants were inoculated with an aqueous spore suspension of Zymoseptoria tritici either prior to or after fungicidal treatments. After inoculation the plants were kept in 100% relative humidity to allow spores to germinate and infect the leaves. The plants were then transferred to a greenhouse set at 20° C. until disease developed.
Molecule,ED50 (ppm) SEPTTR-184 1DP [ppm],ED80 (ppm) SEPTTR-184 1DP [ppm]
B1,3.125,>200
B2,5.208,>200
B3,<3.125,>200
B4,>200,>200

# Same assay, conditions: 1 day protectant; rate 3.125 ppm; average of 2 trials
row,Molecule,Disease Control (%) SEPTTR-184 1DP [%]
1,B1,50
2,B2,46
3,B3,61
4,B4,0

# Same assay, conditions: 1 day protectant; rate 12.5 ppm; average of 2 trials
row,Molecule,Disease Control (%) SEPTTR-184 1DP [%]
1,B1,55
2,B2,64
3,B3,66
4,B4,15

# Same assay, conditions: 1 day protectant; rate 50 ppm; average of 2 trials
row,Molecule,Disease Control (%) SEPTTR-184 1DP [%]
1,B1,71
2,B2,65
3,B3,70
4,B4,23

# Same assay, conditions: 1 day protectant; rate 200 ppm; average of 2 trials
row,Molecule,Disease Control (%) SEPTTR-184 1DP [%]
1,B1,74
2,B2,74
3,B3,77
4,B4,27

# Same assay, conditions: 3 days curative; calculated from disease control
Molecule,ED50 (ppm) SEPTTR-184 3DC [ppm],ED80 (ppm) SEPTTR-184 3DC [ppm]
B1,29.167,>200
B2,<3.125,>200
B3,<3.125,>200
B4,>200,>200

# Same assay, conditions: 3 days curative; rate 3.125 ppm; average of 2 trials
row,Molecule,Disease Control (%) SEPTTR-184 3DC [%]
1,B1,48
2,B2,61
3,B3,52
4,B4,15

# Same assay, conditions: 3 days curative; rate 12.5 ppm; average of 2 trials
row,Molecule,Disease Control (%) SEPTTR-184 3DC [%]
1,B1,46
2,B2,68
3,B3,64
4,B4,19

# Same assay, conditions: 3 days curative; rate 50 ppm; average of 2 trials
row,Molecule,Disease Control (%) SEPTTR-184 3DC [%]
1,B1,55
2,B2,73
3,B3,68
4,B4,19

# Same assay, conditions: 3 days curative; rate 200 ppm; average of 2 trials
row,Molecule,Disease Control (%) SEPTTR-184 3DC [%]
1,B1,61
2,B2,73
3,B3,78
4,B4,35

# System: Zymoseptoria tritici (SEPTTR US-184)
# Assay: Cyp51 dsRNA foliar application bioassay on wheat seedlings, isolate US-184 (Example 5)
# Format: in vivo
# Settings: compared to the non-treated control; isolate not given
# Protocol: RNAi (dsRNA) fungicidal solutions were prepared in TE buffer (pH 8.0), which were then mixed with 9 volumes of phosphate buffer (pH 7.5) containing an adjuvant. The fungicidal solutions were applied to wheat seedlings using an automated booth sprayer to run-off. All sprayed plants were allowed to air dry prior to further handling.
# The following served as controls: adjuvant in phosphate buffer control, disease pressure control (untreated), and clean plant control (negative control).
# as §1
row,Molecule,control of Septoria leaf blotch on wheat seedlings
1,B1,control Septoria leaf blotch
2,B2,control Septoria leaf blotch
3,B3,control Septoria leaf blotch
